Assay results published in patent US12099068B2, “Biomarkers for graft-versus-host disease” (Incyte Corporation, priority 2018, dated 2024).

B1: COCH (protein, UniProt O43405 25-550, looked up)
Cochlin: EGAAPIAITCFTRGLDIRKEKADVLCPGGCPLEEFSVYGNIVYASVSSICGAAVHRGVISNSGGPVRVYSLPGRENYSSVDANGIQSQMLSRWSASFTVTKGKSSTQEATGQAVSTAHPPTGKRLKKTPEKKTGNKDCKADIAFLIDGSFNIGQRRFNLQKNFVGKVALMLGIGTEGPHVGLVQASEHPKIEFYLKNFTSAKDVLFAIKEVGFRGGNSNTGKALKHTAQKFFTVDAGVRKGIPKVVVVFIDGWPSDDIEEAGIVAREFGVNVFIVSVAKPIPEELGMVQDVTFVDKAVCRNNGFFSYHMPNWFGTTKYVKPLVQKLCTHEQMMCSKTCYNSVNIAFLIDGSSSVGDSNFRLMLEFVSNIAKTFEISDIGAKIAAVQFTYDQRTEFSFTDYSTKENVLAVIRNIRYMSGGTATGDAISFTVRNVFGPIRESPNKNFLVIVTDGQSYDDVQGPAAAAHDAGITIFSVGVAWAPLDDLKDMASKPKESHAFFTREFTGLEPIVSDVIRGICRDFLESQQ
B2: ATG4A (protein, UniProt Q8WYN0 1-398, looked up)
Cysteine protease ATG4A: MESVLSKYEDQITIFTDYLEEYPDTDELVWILGKQHLLKTEKSKLLSDISARLWFTYRRKFSPIGGTGPSSDAGWGCMLRCGQMMLAQALICRHLGRDWSWEKQKEQPKEYQRILQCFLDRKDCCYSIHQMAQMGVGEGKSIGEWFGPNTVAQVLKKLALFDEWNSLAVYVSMDNTVVIEDIKKMCRVLPLSADTAGDRPPDSLTASNQSKGTSAYCSAWKPLLLIVPLRLGINQINPVYVDAFKECFKMPQSLGALGGKPNNAYYFIGFLGDELIFLDPHTTQTFVDTEENGTVNDQTFHCLQSPQRMNILNLDPSVALGFFCKEEKDFDNWCSLVQKEILKENLRMFELVQKHPSHWPPFVPPAKPEVTTTGAEFIDSTEQLEEFDLEEDFEILSV
B3: IGFBP-2 (protein, UniProt P18065 36-325, looked up)
Insulin-like growth …: AEVLFRCPPCTPERLAACGPPPVAPPAAVAAVAGGARMPCAELVREPGCGCCSVCARLEGEACGVYTPRCGQGLRCYPHPGSELPLQALVMGEGTCEKRRDAEYGASPEQVADNGDDHSEGGLVENHVDSTMNMLGGGGSAGRKPLKSGMKELAVFREKVTEQHRQMGKGGKHHLGLEEPKKLRPPPARTPCQQELDQVLERISTMRLPDERGPLEHLYSLHIPNCDKHGLYNLKQCKMSLNGQRGECWCVNPNTGKLIQGAPTIRGDPECHLFYNEQQEARGVHTQRMQ
B4: C1QTNF1 (protein, UniProt Q9BXJ1 26-281, looked up)
Complement C1q tumor necrosis …: RVPHVQGEQQEWEGTEELPSPPDHAERAEEQHEKYRPSQDQGLPASRCLRCCDPGTSMYPATAVPQINITILKGEKGDRGDRGLQGKYGKTGSAGARGHTGPKGQKGSMGAPGERCKSHYAAFSVGRKKPMHSNHYYQTVIFDTEFVNLYDHFNMFTGKFYCYVPGLYFFSLNVHTWNQKETYLHIMKNEEEVVILFAQVGDRSIMQSQSLMLELREQDQVWVRLYKGERENAIFSEELDTYITFSGYLVKHATEP
B5: CLEC10A (protein, UniProt Q8IUN9 1-316, looked up)
C-type lectin domain family …: MTRTYENFQYLENKVKVQGFKNGPLPLQSLLQRLCSGPCHLLLSLGLGLLLLVIICVVGFQNSKFQRDLVTLRTDFSNFTSNTVAEIQALTSQGSSLEETIASLKAEVEGFKQERQAGVSELQEHTTQKAHLGHCPHCPSVCVPVHSEMLLRVQQLVQDLKKLTCQVATLNNNASTEGTCCPVNWVEHQDSCYWFSHSGMSWAEAEKYCQLKNAHLVVINSREEQNFVQKYLGSAYTWMGLSDPEGAWKWVDGTDYATGFQNWKPGQPDDWQGHGLGGGEDCAHFHPDGRWNDDVCQRPYHWVCEAGLGQTSQESH
B6: CKAP4 (protein, UniProt Q07065 1-602, looked up)
Cytoskeleton-associated …: MPSAKQRGSKGGHGAASPSEKGAHPSGGADDVAKKPPPAPQQPPPPPAPHPQQHPQQHPQNQAHGKGGHRGGGGGGGKSSSSSSASAAAAAAAASSSASCSRRLGRALNFLFYLALVAAAAFSGWCVHHVLEEVQQVRRSHQDFSRQREELGQGLQGVEQKVQSLQATFGTFESILRSSQHKQDLTEKAVKQGESEVSRISEVLQKLQNEILKDLSDGIHVVKDARERDFTSLENTVEERLTELTKSINDNIAIFTEVQKRSQKEINDMKAKVASLEESEGNKQDLKALKEAVKEIQTSAKSREWDMEALRSTLQTMESDIYTEVRELVSLKQEQQAFKEAADTERLALQALTEKLLRSEESVSRLPEEIRRLEEELRQLKSDSHGPKEDGGFRHSEAFEALQQKSQGLDSRLQHVEDGVLSMQVASARQTESLESLLSKSQEHEQRLAALQGRLEGLGSSEADQDGLASTVRSLGETQLVLYGDVEELKRSVGELPSTVESLQKVQEQVHTLLSQDQAQAARLPPQDFLDRLSSLDNLKASVSQVEADLKMLRTAVDSLVAYSVKIETNENNLESAKGLLDDLRNDLDRLFVKVEKIHEKV
B7: PGLYRP1 (protein, UniProt O75594 22-196, looked up)
Peptidoglycan recognition …: QETEDPACCSPIVPRNEWKALASECAQHLSLPLRYVVVSHTAGSSCNTPASCQQQARNVQHYHMKTLGWCDVGYNFLIGEDGLVYEGRGWNFTGAHSGHLWNPMSIGISFMGNYMDRVPTPQAIRAAQGLLACGVAQGALRSNYVLKGHRDVQRTLSPGNQLYHLIQNWPHYRSP
B8: CLM-6 (protein, UniProt Q08708 21-224, looked up)
CMRF35-like molecule 6: GYFPLSHPMTVAGPVGGSLSVQCRYEKEHRTLNKFWCRPPQILRCDKIVETKGSAGKRNGRVSIRDSPANLSFTVTLENLTEEDAGTYWCGVDTPWLRDFHDPIVEVEVSVFPAGTTTASSPQSSMGTSGPPTKLPVHTWPSVTRKDSPEPSPHPGSLFSNVRFLLLVLLELPLLLSMLGAVLWVNRPQRSSRSRQNWPKGENQ
B9: CDIC (protein, UniProt P29017 18-333, looked up)
T-cell surface glycoprotein …: NADASQEHVSFHVIQIFSFVNQSWARGQGSGWLDELQTHGWDSESGTIIFLHNWSKGNFSNEELSDLELLFRFYLFGLTREIQDHASQDYSKYPFEVQVKAGCELHSGKSPEGFFQVAFNGLDLLSFQNTTWVPSPGCGSLAQSVCHLLNHQYEGVTETVYNLIRSTCPRFLLGLLDAGKMYVHRQVRPEAWLSSRPSLGSGQLLLVCHASGFYPKPVWVTWMRNEQEQLGTKHGDILPNADGTWYLQVILEVASEEPAGLSCRVRHSSLGGQDIILYWGHHFSMNWIALVVIVPLVILIVLVLWFKKHCSYQDIL
B10: SPON2 (protein, UniProt Q9BUD6 27-331, looked up)
Spondin-2: QPLGGESICSARALAKYSITFTGKWSQTAFPKQYPLFRPPAQWSSLLGAAHSSDYSMWRKNQYVSNGLRDFAERGEAWALMKEIEAAGEALQSVHAVFSAPAVPSGTGQTSAELEVQRRHSLVSFVVRIVPSPDWFVGVDSLDLCDGDRWREQAALDLYPYDAGTDSGFTFSSPNFATIPQDTVTEITSSSPSHPANSFYYPRLKALPPIARVTLVRLRQSPRAFIPPAPVLPSRDNEIVDSASVPETPLDCEVSLWSSWGLCGGHCGRLGTKSRTRYVRVQPANNGSPCPELEEEAECVPDNCV
B11: PCDH17 (protein, UniProt O14917 18-1159, looked up)
Protocadherin-17: LKNLNYSVPEEQGAGTVIGNIGRDARLQPGLPPAERGGGGRSKSGSYRVLENSAPHLLDVDADSGLLYTKQRIDRESLCRHNAKCQLSLEVFANDKEICMIKVEIQDINDNAPSFSSDQIEMDISENAAPGTRFPLTSAHDPDAGENGLRTYLLTRDDHGLFGLDVKSRGDGTKFPELVIQKALDREQQNHHTLVLTALDGGEPPRSATVQINVKVIDSNDNSPVFEAPSYLVELPENAPLGTVVIDLNATDADEGPNGEVLYSFSSYVPDRVRELFSIDPKTGLIRVKGNLDYEENGMLEIDVQARDLGPNPIPAHCKVTVKLIDRNDNAPSIGFVSVRQGALSEAAPPGTVIALVRVTDRDSGKNGQLQCRVLGGGGTGGGGGLGGPGGSVPFKLEENYDNFYTVVTDRPLDRETQDEYNVTIVARDGGSPPLNSTKSFAIKILDENDNPPRFTKGLYVLQVHENNIPGEYLGSVLAQDPDLGQNGTVSYSILPSHIGDVSIYTYVSVNPTNGAIYALRSFNFEQTKAFEFKVLAKDSGAPAHLESNATVRVTVLDVNDNAPVIVLPTLQNDTAELQVPRNAGLGYLVSTVRALDSDFGESGRLTYEIVDGNDDHLFEIDPSSGEIRTLHPFWEDVTPVVELVVKVTDHGKPTLSAVAKLIIRSVSGSLPEGVPRVNGEQHHWDMSLPLIVTLSTISIILLAAMITIAVKCKRENKEIRTYNCRIAEYSHPQLGGGKGKKKKINKNDIMLVQSEVEERNAMNVMNVVSSPSLATSPMYFDYQTRLPLSSPRSEVMYLKPASNNLTVPQGHAGCHTSFTGQGTNASETPATRMSIIQTDNFPAEPNYMGSRQQFVQSSSTFKDPERASLRDSGHGDSDQADSDQDTNKGSCCDMSVREALKMKTTSTKSQPLEQEPEECVNCTDECRVLGHSDRCWMPQFPAANQAENADYRTNLFVPTVEANVETETYETVNPTGKKTFCTFGKDKREHTILIANVKPYLKAKRALSPLLQEVPSASSSPTKACIEPCTSTKGSLDGCEAKPGALAEASSQYLPTDSQYLSPSKQPRDPPFMASDQMARVFADVHSRASRDSSEMGAVLEQLDHPNRDLGRESVDAEEVVREIDKLLQDCRGNDPVAVRK
B12: IL-6RA (protein, UniProt P08887 20-468, looked up)
Interleukin-6 receptor …: LAPRRCPAQEVARGVLTSLPGDSVTLTCPGVEPEDNATVHWVLRKPAAGSHPSRWAGMGRRLLLRSVQLHDSGNYSCYRAGRPAGTVHLLVDVPPEEPQLSCFRKSPLSNVVCEWGPRSTPSLTTKAVLLVRKFQNSPAEDFQEPCQYSQESQKFSCQLAVPEGDSSFYIVSMCVASSVGSKFSKTQTFQGCGILQPDPPANITVTAVARNPRWLSVTWQDPHSWNSSFYRLRFELRYRAERSKTFTTWMVKDLQHHCVIHDAWSGLRHVVQLRAQEEFGQGEWSEWSPEAMGTPWTESRSPPAENEVSTPMQALTTNKDDDNILFRDSANATSLPVQDSSSVPLPTFLVAGGSLAFGTLLCIAIVLRFKKTWKLRALKEGKTSMHPPYSLGQLVPERPRPTPVLVPLISPPVSPSSLGSDNTSSHNRPDARDPRSPYDISNTDYFFPR

system: plasma proteins; assay: Plasma proteins modulated between baseline and day 28 in responders (CR, VGPR, PR; n = 19), Example 6 (Table 13); format: in vivo, human; conditions: plasma protein (OLINK NPX); responders (CR, VGPR, PR; n = 19); itacitinib 200 mg or 300 mg QD with corticosteroids; day 28 vs baseline
Outline: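 Longitudinal comparison, day 28 versus baseline, with steroid-naive (N=10) and steroid-refractory (N=18) patients combined. Proteins measured by OLINK proximity extension, log2 normalized protein expression. Differences tested by t tests, ANOVA, Pearson correlation, P<0.05 significant.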

Molecule | Fold Change, Decreased Expression from Baseline to Day 28 | Fold Change, Increased Expression from Baseline to Day 28
B1 | −1.22 | 
B2 | −1.3651 | 
B3 | −1.2058 | 
B4 | −1.2979 | 
B5 | −1.274 | 
B6 | −1.1904 | 
B7 | −1.6181 | 
B8 | −1.1356 | 
B9 | −1.5651 | 
B10 |  | 1.095
B11 | −1.232 | 
B12 | −1.1901 | 
